Measurements as given in US20150140169.

Biological target: T1, alpha-s1 casein from Bos taurus
T1 chain: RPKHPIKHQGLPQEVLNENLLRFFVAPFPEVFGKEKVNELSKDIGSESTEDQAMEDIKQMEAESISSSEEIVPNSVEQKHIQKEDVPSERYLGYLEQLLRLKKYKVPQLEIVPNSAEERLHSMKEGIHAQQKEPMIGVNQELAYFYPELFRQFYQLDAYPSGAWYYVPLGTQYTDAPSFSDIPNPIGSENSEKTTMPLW

B1: bovine chymosin B variant #7 (K221V) (protein)
chain: GEVASVPLTNYLDSQYFGKIYLGTPPQEFTVLFDTGSSDFWVPSIYCKSNACKNHQRFDPRKSSTFQNLGKPLSIHYGTGSMQGILGYDTVTVSNIVDIQQTVGLSTQEPGDVFTYAEFDGILGMAYPSLASEYSIPVFDNMMNRHLVAQDLFSVYMDRNGQESMLTLGAIDPSYYTGSLHWVPVTVQQYWQFTVDSVTISGVVVACEGGCQAILDTGTSVLVGPSSDILNIQQAIGATQNQYGEFDIDCDNLSYMPTVVFEINGKMYPLTPSAYTSQDQGFCTSGFQSENHSQKWILGDVFIREYYSVFDRANNLVGLAKAI
- hydrolysis of the first cut in alpha-s1-casein: show a clear hydrolysis of the first cut in alpha-s1-casein, leading to a rapid formation of fragment alpha-s1-I casein
- small, 6 hours, 11° C.: 0 Volume
- small, 24 hours, 11° C.: 1.05e+07 Volume
- αs1-I CN, 6 hours, 11° C.: 2.28e+07 Volume
- αs1-I CN, 24 hours, 11° C.: 1.82e+07 Volume
- αs1-I CN/αs1 CN, 6 hours, 11° C.: 2.1
- αs1-I CN/αs1 CN, 24 hours, 11° C.: 6.4
- αs1 CN, 6 hours, 11° C.: 1.07e+07 Volume
- αs1 CN, 24 hours, 11° C.: 2.8e+06 Volume

B2: bovine chymosin B variant #103 (A51I, K221T) (protein)
chain: GEVASVPLTNYLDSQYFGKIYLGTPPQEFTVLFDTGSSDFWVPSIYCKSNICKNHQRFDPRKSSTFQNLGKPLSIHYGTGSMQGILGYDTVTVSNIVDIQQTVGLSTQEPGDVFTYAEFDGILGMAYPSLASEYSIPVFDNMMNRHLVAQDLFSVYMDRNGQESMLTLGAIDPSYYTGSLHWVPVTVQQYWQFTVDSVTISGVVVACEGGCQAILDTGTSTLVGPSSDILNIQQAIGATQNQYGEFDIDCDNLSYMPTVVFEINGKMYPLTPSAYTSQDQGFCTSGFQSENHSQKWILGDVFIREYYSVFDRANNLVGLAKAI
- hydrolysis of the first cut in alpha-s1-casein: show a clear hydrolysis of the first cut in alpha-s1-casein, leading to a rapid formation of fragment alpha-s1-I casein
- small, 16 hours, 30° C.: 1.3e+06 Volume
- αs1-I CN, 16 hours, 30° C.: 2.03e+07 Volume
- αs1 CN, 16 hours, 30° C.: 1.4e+06 Volume

B3: bovine chymosin B variant #74 (A51V, K221M) (protein)
chain: GEVASVPLTNYLDSQYFGKIYLGTPPQEFTVLFDTGSSDFWVPSIYCKSNVCKNHQRFDPRKSSTFQNLGKPLSIHYGTGSMQGILGYDTVTVSNIVDIQQTVGLSTQEPGDVFTYAEFDGILGMAYPSLASEYSIPVFDNMMNRHLVAQDLFSVYMDRNGQESMLTLGAIDPSYYTGSLHWVPVTVQQYWQFTVDSVTISGVVVACEGGCQAILDTGTSMLVGPSSDILNIQQAIGATQNQYGEFDIDCDNLSYMPTVVFEINGKMYPLTPSAYTSQDQGFCTSGFQSENHSQKWILGDVFIREYYSVFDRANNLVGLAKAI
- hydrolysis of the first cut in alpha-s1-casein: show a clear hydrolysis of the first cut in alpha-s1-casein, leading to a rapid formation of fragment alpha-s1-I casein
- small, 6 hours, 11° C.: 0 Volume
- small, 16 hours, 30° C.: 5.1e+06 Volume
- small, 24 hours, 11° C.: 0 Volume
- αs1-I CN, 6 hours, 11° C.: 1.98e+07 Volume
- αs1-I CN, 16 hours, 30° C.: 1.86e+07 Volume
- αs1-I CN, 24 hours, 11° C.: 2.47e+07 Volume
- αs1-I CN/αs1 CN, 6 hours, 11° C.: 0.9
- αs1-I CN/αs1 CN, 24 hours, 11° C.: 3.9
- αs1 CN, 6 hours, 11° C.: 2.09e+07 Volume
- αs1 CN, 16 hours, 30° C.: 1.8e+06 Volume
- αs1 CN, 24 hours, 11° C.: 6.3e+06 Volume

B4: bovine chymosin B variant #110 (A51V, K221V, N50D, N144H, N160D, S201D, Q242E, M267E, Q280E) (protein)
chain: GEVASVPLTNYLDSQYFGKIYLGTPPQEFTVLFDTGSSDFWVPSIYCKSDVCKNHQRFDPRKSSTFQNLGKPLSIHYGTGSMQGILGYDTVTVSNIVDIQQTVGLSTQEPGDVFTYAEFDGILGMAYPSLASEYSIPVFDNMMHRHLVAQDLFSVYMDRDGQESMLTLGAIDPSYYTGSLHWVPVTVQQYWQFTVDSVTIDGVVVACEGGCQAILDTGTSVLVGPSSDILNIQQAIGATQNEYGEFDIDCDNLSYMPTVVFEINGKEYPLTPSAYTSQDEGFCTSGFQSENHSQKWILGDVFIREYYSVFDRANNLVGLAKAI
- hydrolysis of the first cut in alpha-s1-casein: show a clear hydrolysis of the first cut in alpha-s1-casein, leading to a rapid formation of fragment alpha-s1-I casein
- small, 16 hours, 30° C.: 1.4e+06 Volume
- αs1-I CN, 16 hours, 30° C.: 2.26e+07 Volume
- αs1 CN, 16 hours, 30° C.: 3e+06 Volume

B5: bovine chymosin B variant #62 (V223Q) (protein)
chain: GEVASVPLTNYLDSQYFGKIYLGTPPQEFTVLFDTGSSDFWVPSIYCKSNACKNHQRFDPRKSSTFQNLGKPLSIHYGTGSMQGILGYDTVTVSNIVDIQQTVGLSTQEPGDVFTYAEFDGILGMAYPSLASEYSIPVFDNMMNRHLVAQDLFSVYMDRNGQESMLTLGAIDPSYYTGSLHWVPVTVQQYWQFTVDSVTISGVVVACEGGCQAILDTGTSKLQGPSSDILNIQQAIGATQNQYGEFDIDCDNLSYMPTVVFEINGKMYPLTPSAYTSQDQGFCTSGFQSENHSQKWILGDVFIREYYSVFDRANNLVGLAKAI
- hydrolysis of the first cut in alpha s1-casein: variant 62 shows slow hydrolysis of the first cut in alpha s1-casein, and therefore slow accumulation of alpha s1-I casein
- small, 6 hours, 11° C.: 0 Volume
- small, 24 hours, 11° C.: 4.1e+06 Volume
- αs1-I CN, 6 hours, 11° C.: 1.29e+07 Volume
- αs1-I CN, 24 hours, 11° C.: 1.99e+07 Volume
- αs1 CN, 6 hours, 11° C.: 2.67e+07 Volume
- αs1 CN, 24 hours, 11° C.: 1.34e+07 Volume

B6: bovine chymosin B variant #98 (A51V, K221V, S135T, A126G, S273Y, Q240E) (protein)
chain: GEVASVPLTNYLDSQYFGKIYLGTPPQEFTVLFDTGSSDFWVPSIYCKSNVCKNHQRFDPRKSSTFQNLGKPLSIHYGTGSMQGILGYDTVTVSNIVDIQQTVGLSTQEPGDVFTYAEFDGILGMGYPSLASEYTIPVFDNMMNRHLVAQDLFSVYMDRNGQESMLTLGAIDPSYYTGSLHWVPVTVQQYWQFTVDSVTISGVVVACEGGCQAILDTGTSVLVGPSSDILNIQQAIGATENQYGEFDIDCDNLSYMPTVVFEINGKMYPLTPYAYTSQDQGFCTSGFQSENHSQKWILGDVFIREYYSVFDRANNLVGLAKAI
- hydrolysis of the first cut in alpha-s1-casein: show a clear hydrolysis of the first cut in alpha-s1-casein, leading to a rapid formation of fragment alpha-s1-I casein
- small, 16 hours, 30° C.: 1.4e+06 Volume
- αs1-I CN, 16 hours, 30° C.: 1.96e+07 Volume
- αs1 CN, 16 hours, 30° C.: 1.5e+06 Volume

B7: bovine chymosin B variant #71 (A51V, K221V) (protein)
chain: GEVASVPLTNYLDSQYFGKIYLGTPPQEFTVLFDTGSSDFWVPSIYCKSNVCKNHQRFDPRKSSTFQNLGKPLSIHYGTGSMQGILGYDTVTVSNIVDIQQTVGLSTQEPGDVFTYAEFDGILGMAYPSLASEYSIPVFDNMMNRHLVAQDLFSVYMDRNGQESMLTLGAIDPSYYTGSLHWVPVTVQQYWQFTVDSVTISGVVVACEGGCQAILDTGTSVLVGPSSDILNIQQAIGATQNQYGEFDIDCDNLSYMPTVVFEINGKMYPLTPSAYTSQDQGFCTSGFQSENHSQKWILGDVFIREYYSVFDRANNLVGLAKAI
- hydrolysis of the first cut in alpha-s1-casein: show a clear hydrolysis of the first cut in alpha-s1-casein, leading to a rapid formation of fragment alpha-s1-I casein
- small, 6 hours, 11° C.: 0 Volume
- small, 16 hours, 30° C.: 2.4e+06 Volume
- small, 24 hours, 11° C.: 0 Volume
- αs1-I CN, 6 hours, 11° C.: 2.54e+07 Volume
- αs1-I CN, 16 hours, 30° C.: 1.97e+07 Volume
- αs1-I CN, 24 hours, 11° C.: 2.46e+07 Volume
- αs1-I CN/αs1 CN, 6 hours, 11° C.: 2.9
- αs1-I CN/αs1 CN, 24 hours, 11° C.: 9.8
- αs1 CN, 6 hours, 11° C.: 8.8e+06 Volume
- αs1 CN, 16 hours, 30° C.: 1.6e+06 Volume
- αs1 CN, 24 hours, 11° C.: 2.5e+06 Volume

B8: camel chymosin variant #166 (I297T) (protein)
chain: GKVAREPLTSYLDSQYFGKIYIGTPPQEFTVVFDTGSSDLWVPSIYCKSNVCKNHHRFDPRKSSTFRNLGKPLSIHYGTGSMEGFLGYDTVTVSNIVDPNQTVGLSTEQPGEVFTYSEFDGILGLAYPSLASEYSVPVFDNMMDRHLVARDLFSVYMDRNGQGSMLTLGAIDPSYYTGSLHWVPVTLQQYWQFTVDSVTINGVAVACVGGCQAILDTGTSVLFGPSSDILKIQMAIGATENRYGEFDVNCGNLRSMPTVVFEINGRDYPLSPSAYTSKDQGFCTSGFQGDNNSELWTLGDVFIREYYSVFDRANNRVGLAKAI
- (αSN1-1)/(αSN1), 6 hours, 11° C.: 0.9
- (αSN1-1)/(αSN1), 24 hours, 11° C.: 3.1
- αs1-I CN, 6 hours, 11° C.: 1.8e+07 Volume
- αs1-I CN, 24 hours, 11° C.: 1.33e+07 Volume
- αs1 CN, 6 hours, 11° C.: 2.1e+07 Volume
- αs1 CN, 24 hours, 11° C.: 4.2e+06 Volume

B9: camel chymosin variant #167 (I297V) (protein)
chain: GKVAREPLTSYLDSQYFGKIYIGTPPQEFTVVFDTGSSDLWVPSIYCKSNVCKNHHRFDPRKSSTFRNLGKPLSIHYGTGSMEGFLGYDTVTVSNIVDPNQTVGLSTEQPGEVFTYSEFDGILGLAYPSLASEYSVPVFDNMMDRHLVARDLFSVYMDRNGQGSMLTLGAIDPSYYTGSLHWVPVTLQQYWQFTVDSVTINGVAVACVGGCQAILDTGTSVLFGPSSDILKIQMAIGATENRYGEFDVNCGNLRSMPTVVFEINGRDYPLSPSAYTSKDQGFCTSGFQGDNNSELWVLGDVFIREYYSVFDRANNRVGLAKAI
- (αSN1-1)/(αSN1), 6 hours, 11° C.: 0.7
- (αSN1-1)/(αSN1), 24 hours, 11° C.: 2.9
- αs1-I CN, 6 hours, 11° C.: 2.02e+07 Volume
- αs1-I CN, 24 hours, 11° C.: 2.29e+07 Volume
- αs1 CN, 6 hours, 11° C.: 2.73e+07 Volume
- αs1 CN, 24 hours, 11° C.: 8e+06 Volume

B10: camel chymosin variant #136 (F223C) (protein)
chain: GKVAREPLTSYLDSQYFGKIYIGTPPQEFTVVFDTGSSDLWVPSIYCKSNVCKNHHRFDPRKSSTFRNLGKPLSIHYGTGSMEGFLGYDTVTVSNIVDPNQTVGLSTEQPGEVFTYSEFDGILGLAYPSLASEYSVPVFDNMMDRHLVARDLFSVYMDRNGQGSMLTLGAIDPSYYTGSLHWVPVTLQQYWQFTVDSVTINGVAVACVGGCQAILDTGTSVLCGPSSDILKIQMAIGATENRYGEFDVNCGNLRSMPTVVFEINGRDYPLSPSAYTSKDQGFCTSGFQGDNNSELWILGDVFIREYYSVFDRANNRVGLAKAI
- (αSN1-1)/(αSN1), 6 hours, 11° C.: 0.7
- (αSN1-1)/(αSN1), 24 hours, 11° C.: 1.9
- αs1-I CN, 6 hours, 11° C.: 2.06e+07 Volume
- αs1-I CN, 24 hours, 11° C.: 2.03e+07 Volume
- αs1 CN, 6 hours, 11° C.: 2.86e+07 Volume
- αs1 CN, 24 hours, 11° C.: 1.06e+07 Volume

B11: camel chymosin variant #137 (F223D) (protein)
chain: GKVAREPLTSYLDSQYFGKIYIGTPPQEFTVVFDTGSSDLWVPSIYCKSNVCKNHHRFDPRKSSTFRNLGKPLSIHYGTGSMEGFLGYDTVTVSNIVDPNQTVGLSTEQPGEVFTYSEFDGILGLAYPSLASEYSVPVFDNMMDRHLVARDLFSVYMDRNGQGSMLTLGAIDPSYYTGSLHWVPVTLQQYWQFTVDSVTINGVAVACVGGCQAILDTGTSVLDGPSSDILKIQMAIGATENRYGEFDVNCGNLRSMPTVVFEINGRDYPLSPSAYTSKDQGFCTSGFQGDNNSELWILGDVFIREYYSVFDRANNRVGLAKAI
- (αSN1-1)/(αSN1), 6 hours, 11° C.: 0.7
- (αSN1-1)/(αSN1), 24 hours, 11° C.: 2.3
- αs1-I CN, 6 hours, 11° C.: 2.26e+07 Volume
- αs1-I CN, 24 hours, 11° C.: 2.55e+07 Volume
- αs1 CN, 6 hours, 11° C.: 3.14e+07 Volume
- αs1 CN, 24 hours, 11° C.: 1.1e+07 Volume
